Data: US9789196B2, “Site-specific insulin-polymer conjugates” (AntriaBio, Inc., priority 2003, dated 2017)

What was measured:
[1] = Characterization of PEG-insulin PLGA microspheres (coreload, encapsulation efficiency by RP-HPLC); type: physicochemical; conditions: PLGA 45:55 L:G, 0.15 dL/g, acid end group microspheres, nominal core load 25 wt %
Experimental: PEG-insulin F5000 (50 mg) was dissolved in 1 ml methylene chloride. The solution was added to a volume of 1 ml methylene chloride containing 150 mg PLGA 45:55 (lac:gly), 0.15 dl/g IV with acid end groups. The methylene chloride solution was added to 5 ml water containing 1% poly(vinyl alcohol) in a 15 ml centrifuge tube and vortex-mixed to form an emulsion. The emulsion was added to 100 ml of water containing 0.3% poly(vinyl alcohol) and stirred for 3 hrs to evaporate the methylene chloride. The hardened microspheres were collected by vacuum filtration on Whatman #1 filter paper and dried.
The PEG-insulin microspheres' surface morphology and particle size distribution were examined by scanning electron microscope and laser-light scattering particle size analysis, respectively. Analytical reverse phase HPLC was used to quantify the amount of PEG-insulin conjugate encapsulated within the polymer microspheres. Prior to HPLC analysis, a measured quantity of microspheres was dissolved in a volume of acetonitrile, and an equivalent volume of 0.1% TFA in water was added to precipitate the polymer and extract the conjugate into aqueous solution. K2000, K5000, K10000, K20000 and F5000-A were also encapsulated using this method. The results of these tests are collected in Table 1, which lists the PEG-insulin content in % (w/w) of the total microsphere and the encapsulation efficiency, defined as weight of PEG-insulin encapsulated/weight of PEG-insulin added initially. Relatively high drug content up to 28.3% and encapsulation efficiency, up to 100%, were achieved, making the product clinically useful due to reduced total dose required, and commercially attractive due to low losses of starting material. In addition, microspheres were prepared using polymers of varying lactide:glycolide ratios (50:[…]), molecular weights (6.5-24 kDa), intrinsic viscosities (0.09-0.27 dL/g), or terminal ester groups (methyl and lauryl), with a wide range of drug loadings (5-35 wt %).
Microspheres were prepared with PLGA (45:55 L:G, 0.15 dL/g, acid end group) to a nominal core load of 25 wt %.

[2] = In vitro release of PEG-insulin from PLGA microspheres; type: physicochemical; conditions: PLGA 45:55 microspheres, nominal core load 25 wt %
Experimental: A sample of 15 mg […] PEG-insulin microspheres (14.1% drug content, PLGA 45:55; 0.15 dl/g IV, acid end groups) was suspended in 1.5 ml phosphate buffered saline (pH 7.4, 0.02% sodium azide and 0.02% Tween20) and incubated at 37° C. The supernatant was withdrawn at intervals and analyzed by RP HPLC for released PEG-insulin. The buffer was replaced with fresh PBS and the incubation continued. The data were analyzed for cumulative release as a function of incubation time (FIG. 4). Less than 1.0% of the PEG-insulin is released in the first day and over 95% is released within 18 days. The low “burst” release, high total release and duration over approximately a two-week period are highly desired features of a sustained release insulin formulation.

[3] = test system: fasted Sprague-Dawley rats; test: Pharmacodynamics of PEG-insulin conjugates after intravenous injection to normal rats (blood glucose); type: in vivo, rat; conditions: 0.3 IU/kg equivalent; for suppression of glucose levels relative to normal human insulin: tail vein injection, fasted Sprague-Dawley rats, 6 hrs, vs Humulin R
Experimental: The effects of PEGylation on insulin pharmacodynamics were investigated. These studies were conducted to evaluate the in vivo biological activity (ability to lower serum glucose) of conjugate formulations containing PEG-insulins differing in site of substitution (positional isomers) or PEG molecular weight, relative to a commercially available insulin formulation (Humulin R, Lilly). Blood glucose levels were measured for fasted Sprague-Dawley rats after intravenous administration of F5000, K2000, K5000, K10000, or HumulinR®. The equivalent of 0.3 IU/kg (based on protein concentration and corrected for the weight of the PEG as appropriate; assumes 25 IU/mg protein) were dissolved in normal saline and administered by tail vein injection; N=6 per group. Blood was drawn before test article injection and at intervals over a period of 6 hrs post injection. Serum was isolated by standard procedure and glucose levels were measured using an Accucheck Advantage (Boeringer Ingelheim) glucose meter.

rabbits = conditions: calculated on a molar basis; cited from earlier work
liver enzymes = conditions: cited from earlier work

F5000-A: probably F5000 made with mPEG(5000)-aldehyde, secondary amine bond at PheB1 (Example 5) [Conjugate F5000-A]
Coreload [1]: 21 wt % | Encapsulation Efficiency [1]: 85 wt % | In vitro release, Initial burst [2]: 20% | In vitro release, Total [2]: 97%

K10000: branched mPEG2-SPA 10,000 Da attached to the amino group of LysB29 of insulin [Conjugate K10000]
Coreload [1]: 19 wt % | Encapsulation Efficiency [1]: 76 wt % | In vitro release, Initial burst [2]: 80% | duration of action ([3]; intravenous, normal rats): exceed 6 hours | suppression of glucose levels relative to normal human insulin [3]: did not reduce glucose levels to the same extent as the other test articles

K2000: linear mPEG-SPA 2000 Da attached to the amino group of LysB29 of insulin [Conjugate K2000]
Coreload [1]: 24 wt % | Encapsulation Efficiency [1]: 96 wt % | In vitro release, Initial burst [2]: 6% | suppression of glucose levels relative to normal human insulin [3]: as effective in suppressing the glucose levels in normal rats as equivalent doses of normal human insulin

K5000: PEG-5000 linked to insulin B chain Lys29 [Conjugate K5000]
Coreload [1]: 24 wt % | Encapsulation Efficiency [1]: 96 wt % | In vitro release, Initial burst [2]: 2% | suppression of glucose levels relative to normal human insulin [3]: as effective in suppressing the glucose levels in normal rats as equivalent doses of normal human insulin

mPEG(1500)-B1-insulin: prior-art site-specific PEG 1500 conjugate of insulin at residue PheB1 (Obermeier; Geiger; Ehrat)
insulin effect on reduction of blood sugar levels (rabbits): 100% | stability to liver enzymes compared with native insulin (liver enzymes): far more stable (to liver enzymes)

mPEG(5000)-PheB1-insulin [Conjugate F5000]
Coreload [1]: 24 wt % | Encapsulation Efficiency [1]: 96 wt % | In vitro release, Initial burst [2]: 2% | suppression of glucose levels relative to normal human insulin [3]: as effective in suppressing the glucose levels in normal rats as equivalent doses of normal human insulin

K20000: branched mPEG2-SPA 20,000 Da attached to the amino group of LysB29 of insulin [Conjugate K20000]
Coreload [1]: 14 wt % | Encapsulation Efficiency [1]: 56 wt % | In vitro release, Initial burst [2]: 80%
